Test results reported in the supplement of paper PMC12764529.
± gives the half width of the 95% confidence interval.

Assays:
[1] = folding stability dG unfold from trypsin proteolysis; higher = more stable
Summary of the method: (§1)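 Designed mini-proteins with no cysteine and under 80 residues were kept only if AlphaFold2 dimer inter-PAE was above 15. In a PA-tagged cDNA display construct, they were digested with trypsin and chymotrypsin and then sequenced. K50 was inferred by Bayesian fitting of counts, and unfolding free energy was derived per protease or combined against a sequence-predicted unfolded-state K50 and a shared folded-state K50.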

[2] = folding stability dG unfold from chymotrypsin proteolysis; higher = more stable
Summary of the method: as §1

[3] = folding stability dG unfold (combined trypsin and chymotrypsin); higher = more stable
Summary of the method: as §1

Sequence	folding stability dG unfold [1] [kcal/mol]	folding stability dG unfold [2] [kcal/mol]	folding stability dG unfold [3] [kcal/mol]
SAGGSANWYIKITIEYPNGREWEIPFPFKSVEDVKDQIKNAAREYFPNLPPEDVKIDDIELYPLDDSAGGSA [r15_220_TrROS]	1.3 ± 0.056	2.01 ± 0.04	1.83 ± 0.097
SAGGSAPARIVLPGGRTRTLRLSEISPELLAAFPDVLVRLPGGEVRRLPADTLLSLEGDYTLVVPGSAGGSA [r15_733_TrMRF]	-0.262 ± 0.18	0.573 ± 0.12	0.335 ± 0.099
SAGGSAPDWKIVDIEPTDNSITITVEAPPGVRVMIFNPGNGKVQHRPFPPGDTITIPPRMYIMVWVSAGGSA [r15_418_TrROS]	2.43 ± 0.032	3.121 ± 0.03	2.84 ± 0.081
SAGGSAPEALVFVERREDDSLTVVVLFPDGTLVTRRVEVRDEGVTVETETAPVLVIPEPGRLELALSAGGSA [r15_746_TrMRF]	0.595 ± 0.029	1.39 ± 0.046	1.14 ± 0.051
SAGGSAPEPIRFYFWWPGKIIEITIPPDEIEKVEIKPDNGDIDITVKLPGEEVEISITPGAIHVQTSAGGSA [r15_598_TrROS]	1.56 ± 0.11	2.57 ± 0.032	2.29 ± 0.17
SAGGSAPFPIKISTIRYPDGYIRMEIWIPPDAPIKIKFPNGFEMEVEPVPNGYYRITMYFRIPKEDSAGGSA [r15_523_TrROS]	3.77 ± 0.094	4.79 ± 0.11	4.53 ± 0.15
SAGGSAPGEPIFIRWKIEHPNGNPWTIPFPIKTEEQALEQAIRFAESIAKKLGNPNVKIKIDEIIPSAGGSA [r15_698_TrROS]	1.11 ± 0.12	0.575 ± 0.44	0.914 ± 0.21
SAGGSAPGWYPITYEFEDNNKEIKIEVYYPKEDPMVGVDIEDPDGKVIFTIWFPADNAEKALKEILSAGGSA [r15_940_TrROS]	1.23 ± 0.07	1.49 ± 0.071	1.39 ± 0.092
SAGGSAPKEGTIWIMIPVRYERDPNGKVKPISAEQIADLFQELGFPIKIDEIFDSPGYIMIRIKVKSAGGSA [r15_225_TrROS]	2.5 ± 0.075	3.204 ± 0.032	3.04 ± 0.16
SAGGSAPLPPGAVVEIVEVRFDPETRRIEMVVKVYDANGELVATLRVELEFDPETNELTLRVELLPSAGGSA [r15_1028_TrROS_Hall]	3.41 ± 0.24	4.5 ± 0.18	4.23 ± 0.14
SAGGSAPMFEIWFRDPEAIEKLLEESGFPVSIERFPNDPNWVKITIFMKGPMEEAQDKLREALGLESAGGSA [r15_118_TrROS]	2.29 ± 0.04	2.95 ± 0.014	2.74 ± 0.036
SAGGSAPPEWRTIMIPMKPDDVDNAIEELRNELPPGRNINIHLQDPEPGRYFMITIRGNKIEIHFMSAGGSA [r15_257_TrROS]	2.1 ± 0.17	2.12 ± 0.21	2.29 ± 0.17
SAGGSAPPNWRRIEITFYIPPGQPTVSELADHIAKRIGFPVTGVEIDKVERNPDGAYEVKVSIIVPSAGGSA [r15_654_TrROS]	2.69 ± 0.056	2.9 ± 0.054	2.75 ± 0.15
SAGGSAPREIPIMIRVPGYQIEIHKITVPPNGMVQIGLEWRNPGGDKPVTINIWLPLNEIKDFIKASAGGSA [r15_56_TrROS]	1.83 ± 0.042	3.1 ± 0.042	2.54 ± 0.14
SAGGSAPSISYTDPNITTITVNPPYITTTRPDGTTTVYKVNNGGDITKLKTTPPVPPAAATDASVASAGGSA [r15_393_JUSTAS]	-0.17 ± 0.071	0.421 ± 0.13	0.148 ± 0.16
SAGGSAPSPEVPLWRFEAPGASGGVALIEGYPGGELRVVFFTDDGRPVELTFPVVVLPPAPLEELFSAGGSA [r15_478_TrMRF]	1.51 ± 0.039	1.24 ± 0.086	1.38 ± 0.075
SAGGSAPSSGNVLEIKVEKLPDGTLVGTLTVKDPNSSNTTTIEITIPSSKTPEEAEAELKKIVEEASAGGSA [r15_181_JUSTAS]	2.11 ± 0.068	2.09 ± 0.025	2.11 ± 0.057
SAGGSAPSVFPFKAKFKDYDLEIKSITVYENGEVEINAIAYNPDGKKKVELNITLPYSEILDLLKSSAGGSA [r15_56_TrMRF]	2.35 ± 0.059	2.68 ± 0.037	2.55 ± 0.094
